From publication PMC6215862, “AlNAC4 Transcription Factor From Halophyte Aeluropus lagopoides Mitigates Oxidative Stress by Maintaining ROS Homeostasis in Transgenic Tobacco”
Where a chain is given by its changes, count along the chain named.

Experiments:
AlNAC4 [1] = target: T1, AlNAC4 (Aeluropus lagopoides, UniProt A0A220T1T2 1-312); assay: EMSA; 80 ng probe, 300-2400 ng protein; binding increases with protein; 15 mM HEPES, 35 mM KCl, 1 mM EDTA pH 8.0, 1 mM DTT, 1 mM MgCl2, 6% glycerol, 4 ug glycogen, 25 ul, room temperature 20 min; 10% acrylamide 0.5x TBE gel, ethidium bromide stain; details: protein: recombinant, tags: 6xHis (pET-28a; not thrombin-cleaved), chain copies: 2
T1 sequence: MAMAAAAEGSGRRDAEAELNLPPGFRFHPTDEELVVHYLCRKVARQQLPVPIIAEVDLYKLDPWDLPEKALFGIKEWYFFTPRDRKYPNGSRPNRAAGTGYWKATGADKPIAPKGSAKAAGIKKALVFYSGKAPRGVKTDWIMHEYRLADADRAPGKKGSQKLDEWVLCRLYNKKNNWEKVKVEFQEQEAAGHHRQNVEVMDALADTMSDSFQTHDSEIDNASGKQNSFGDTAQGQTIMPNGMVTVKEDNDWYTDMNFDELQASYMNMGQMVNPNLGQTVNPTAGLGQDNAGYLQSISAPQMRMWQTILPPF

AlNAC4 [2] = target: T1, AlNAC4; assay: EMSA; data not shown; 15 mM HEPES, 35 mM KCl, 1 mM EDTA pH 8.0, 1 mM DTT, 1 mM MgCl2, 6% glycerol, 4 ug glycogen, 25 ul, room temperature 20 min; 10% acrylamide 0.5x TBE gel, ethidium bromide stain; details: protein: recombinant; tags: 6xHis (pET-28a; not thrombin-cleaved); chain copies: 2; blunt
AlNAC4 [3] = target: T1, AlNAC4; assay: EMSA; 15 mM HEPES, 35 mM KCl, 1 mM EDTA pH 8.0, 1 mM DTT, 1 mM MgCl2, 6% glycerol, 4 ug glycogen, 25 ul, room temperature 20 min; 10% acrylamide 0.5x TBE gel, ethidium bromide stain; details: protein: recombinant; tags: 6xHis (pET-28a; not thrombin-cleaved); chain copies: 2; blunt

B1: NACBS (single NACRS with flanks, erd1 promoter) (dsDNA)
DNA 1: AGCTTGTGCAACTTGAGCTCTTCTTCTGTAACACGCATGTGTTGCGTTTGGTTTTTAATTTATTTGCCA
DNA 2: TGGCAAATAAATTAAAAACCAAACGCAACACATGCGTGTTACAGAAGAAGAGCTCAAGTTGCACAAGCT
B1: binds (AlNAC4 [1]; blunt).

B2: mutated NACBS (CATGTG to AAAAAA, AACA to TTAA) (dsDNA)
DNA 1: B1 DNA 1 with A30T, A31T, C32A, C36A, T38A, G39A, T40A, G41A
DNA 2: B1 DNA 2 with C29T, A30T, C31T, A32T, G34T, G38T, T39A, T40A
B2: no binding (AlNAC4 [2]).

B3: NACBST (tandem NACRS, erd1 promoter) (dsDNA)
DNA 1: GGCCGCACACGCATGTGACACGCATGTGACACGCATGTGACACGCATGTGA
DNA 2: CTAGTCACATGCGTGTCACATGCGTGTCACATGCGTGTCACATGCGTGTGC
B3: binds (AlNAC4 [1]; 5' overhangs 4 nt on both strands (GGCC, CTAG)).

B4: pBSK+ MCS (dsDNA)
DNA 1: GGGGATCCACTAGTTCTAGAGCGGCCGCCA
DNA 2: TGGCGGCCGCTCTAGAACTAGTGGATCCCC
B4: no binding (AlNAC4 [3]).
